# Reference: paper PMC7986998
# Biological target: human ACE2-Fc (human) (UniProt Q9BYF1)
# Experiment: ELISA
# Chain of human ACE2-Fc (human) (Q9BYF1 18-740): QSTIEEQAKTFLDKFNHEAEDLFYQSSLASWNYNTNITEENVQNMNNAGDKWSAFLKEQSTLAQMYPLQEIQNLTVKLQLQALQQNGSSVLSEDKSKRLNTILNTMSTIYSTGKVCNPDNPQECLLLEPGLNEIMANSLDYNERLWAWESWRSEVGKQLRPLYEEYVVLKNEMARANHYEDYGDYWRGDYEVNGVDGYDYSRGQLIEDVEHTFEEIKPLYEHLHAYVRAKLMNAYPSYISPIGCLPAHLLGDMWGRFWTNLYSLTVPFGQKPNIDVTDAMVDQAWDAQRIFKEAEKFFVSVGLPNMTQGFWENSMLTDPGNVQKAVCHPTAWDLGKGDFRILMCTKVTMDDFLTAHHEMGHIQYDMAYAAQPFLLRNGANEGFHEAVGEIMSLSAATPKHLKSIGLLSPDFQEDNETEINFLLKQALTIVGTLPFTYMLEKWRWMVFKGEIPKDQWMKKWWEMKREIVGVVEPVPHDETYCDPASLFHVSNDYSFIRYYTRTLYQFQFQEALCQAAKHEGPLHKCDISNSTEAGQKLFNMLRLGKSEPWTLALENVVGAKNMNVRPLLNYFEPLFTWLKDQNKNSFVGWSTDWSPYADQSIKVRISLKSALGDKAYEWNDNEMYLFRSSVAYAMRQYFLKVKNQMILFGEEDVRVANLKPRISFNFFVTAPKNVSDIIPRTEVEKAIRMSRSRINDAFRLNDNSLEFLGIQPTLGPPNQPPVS
substance,measurement,value
SARS-CoV S 2P ectodomain trimer (from UniProt P59594 14-1195) (domain or fragment),EC50,4.11 nM
